Laboratory results reported in patent US20160289321A1 (SHANGHAI HENGRUI PHARMACEUTICAL, published 2016).
Where two headings read alike, the source gives them in different places.

T1: Mouse IL-17A (Mu IL-17A) (mouse, UniProt Q62386 26-158)
T1 sequence (looked up): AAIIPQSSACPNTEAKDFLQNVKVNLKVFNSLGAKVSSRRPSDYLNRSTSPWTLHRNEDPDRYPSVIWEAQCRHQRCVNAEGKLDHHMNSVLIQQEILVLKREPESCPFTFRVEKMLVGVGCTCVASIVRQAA

T2: Rat IL-17A (rat, UniProt Q61453 18-150, limits assumed)
T2 sequence (looked up): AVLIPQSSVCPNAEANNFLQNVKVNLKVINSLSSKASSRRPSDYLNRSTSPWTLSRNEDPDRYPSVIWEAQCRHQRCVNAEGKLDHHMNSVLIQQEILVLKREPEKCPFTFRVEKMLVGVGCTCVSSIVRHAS


What was measured:
biotin-labeled IL-17A = molecular target: T3, biotin-labeled IL-17A (human, UniProt Q16552 24-155, limits assumed, biotin-labeled (sites not given)); assay: receptor blocking ELISA (RBA): antibody titrated against biotin-labeled IL-17A binding to captured IL-17RA-Fc
T3 construct: also called huIL-17
Procedure: 6. The positive controls, Lilly mAb and Novartis mAb, or antibodies of the present invention were diluted at a 1:5 ratio, with an initial concentration of 40 μg/ml. mIgG was diluted using the same method. 50 μl of diluted positive control, murine antibody of the present invention, or mIgG were added to each well, and, 50 μof 0.2nM biotin-labeled IL-17A were added to the wells containing diluted positive control or the antibody of the present invention, mixed gently and the plates were thermostatically incubated at 37° C. for 1 h.
7. The plates were washed with PBST three times; 8. 100 μl of HRP-labeled streptavidin complex (1:5000) were added to each well, and the plates were thermostatically incubated at 37° C. for 1 h;

[1] = molecular target: T4, Human IL-17A (hIL-17A), expressed in HEK293E (human, UniProt Q16552 24-155); assay: SPR (Biacore X100), antibody captured on the chip, IL-17A as analyte
Procedure: (§1) 2. Binding kinetics Test: FC1 (Flow cell 1) was used as the reference channel, FC2 (Flow cell 2) was used as the sample channel, and murine or humanized control antibody or the antibody of the present invention was captured in the FC2 channel at 300RU, followed by the injection of different concentrations of IL-17 (including hIL-17A, MuIL-17, Rat IL-17). Cycle conditions were: injecting analytes into all FC channels at 30 μl/min for 3min, dissociation for 20 min, injecting 10 mM Glycine, pH 1.5, for 60 s (at rate of 10 μl/min) for surface regeneration. The difference between the signal with captured antibody and the signal without captured antibody was calculated using Biacore X100 evaluation software ver 2.0 (Biacore), and the running buffer was 10 mM Hepes, […], 3 mM EDTA, 0.05% Tween-20.
1. Hybridomas obtained in Example 1 were tested using the above method, and the results were as follows: […]

[2] = molecular target: T5, Recombinant human IL-17A (rhIL-17A), R&D Systems Cat.No.317-ILB (human, UniProt Q16552 20-155, limits assumed); assay: cell-based or functional assay
[3] = molecular target: T6, Recombinant human IL-17A/F (rhIL-17A/F), R&D System Cat No.5194-IL/CF (human, UniProt Q16552 20-155; Q96PD4 31-163, limits assumed); assay: cell-based or functional assay
[4] = molecular target: T4, Human IL-17A (hIL-17A), expressed in …; assay: indirect ELISA, hIL-17A or hIL-17A/F on streptavidin plates, OD450 against Lilly mAb and Novartis mAb
Procedure: 6. The positive controls, Lilly mAb and Novartis mAb, or murine mAbs antibodies of the present invention were titrated at a 1:5 dilution, with an initial concentration of 1 μg/ml. 100 μl of diluted positive control or murine antibody of the present invention were added to each well, and the plates were thermostatically incubated at 37° C. for 1 h. Each concentration was tested in duplicate;
10. The OD value at a wavelength of 450 nm was read on an ELISA microplate reader (Molecular Devices, Spectra Max).
11. The OD values of the murine mAb antibodies were compared to those of the positive controls. Monoclonal cell lines with a ratio greater than 1, including IL17-mAb049, were screened.

Mouse IL-17A (Mu IL-17A) = molecular target: T1, Mouse IL-17A (Mu IL-17A); assay: SPR (Biacore X100), antibody captured on the chip, mouse IL-17 as analyte
Procedure: as §1
(§2) 2. Humanized IL-17 antibodies obtained from Example 2 were tested using the above method, and the results were as follows: […]

[5] = molecular target: T5, Recombinant human IL-17A (rhIL-17A), …; assay: cell-based or functional assay; remark: listed apart in the source
Cyno IL-17A = Cyno IL-17A (cynomolgus, UniProt A0A2K5TTB0 24-155); assay: cell-based or functional assay
[6] = molecular target: T6, Recombinant human IL-17A/F …; assay: cell-based or functional assay; remark: listed apart in the source
Rat IL-17A = molecular target: T2, Rat IL-17A; assay: SPR (Biacore X100), antibody captured on the chip, rat IL-17 as analyte
Procedure: as §1, §2

[7] = molecular target: T4, Human IL-17A (hIL-17A), expressed in …; assay: SPR (Biacore X100), antibody captured on the chip, IL-17A as analyte; remark: listed apart in the source
Procedure: as §1, §2

T6 sequence (Q16552 20-155 limits assumed, chain 1 of 2): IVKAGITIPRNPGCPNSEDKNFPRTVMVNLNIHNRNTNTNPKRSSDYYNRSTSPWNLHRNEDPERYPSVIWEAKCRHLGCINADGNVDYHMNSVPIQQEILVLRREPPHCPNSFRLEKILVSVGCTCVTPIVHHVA
T6 sequence (Q96PD4 31-163 limits assumed, chain 2 of 2): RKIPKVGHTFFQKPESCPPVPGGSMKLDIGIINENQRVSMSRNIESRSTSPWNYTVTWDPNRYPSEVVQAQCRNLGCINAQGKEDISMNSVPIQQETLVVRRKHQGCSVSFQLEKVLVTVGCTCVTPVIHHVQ
T5 sequence (Q16552 20-155 limits assumed): as the sequence (Q16552 20-155 limits assumed, chain 1 of 2) above
Sequence of Cyno IL-17A (A0A2K5TTB0 entry or part of it): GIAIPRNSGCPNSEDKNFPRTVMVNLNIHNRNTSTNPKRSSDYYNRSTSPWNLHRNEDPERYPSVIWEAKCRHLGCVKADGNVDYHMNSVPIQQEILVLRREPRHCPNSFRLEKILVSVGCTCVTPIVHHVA
T4 sequence (Q16552 24-155 limits assumed): as the sequence (A0A2K5TTB0 entry or part of it) above, with A3T, S8P, S34N, V77I, K78N, R104P counted along it
T3 sequence (Q16552 24-155 limits assumed): as the sequence (A0A2K5TTB0 entry or part of it) above, with A3T, S8P, S34N, V77I, K78N, R104P counted along it

Binder | IC50 (biotin-labeled IL-17A) | Kd [1] | huIL-17 Bioassay (IC50, nM) [2] | huIL-17A/F Bioassay (IC50, nM) [3] | ratio of OD value to that of the positive controls [4] | Kd (Mouse IL-17A (Mu IL-17A)) | huIL-17 Bioassay (IC50, nM) [5] | Cyno IL-17A (bioassay IC50) (Cyno IL-17A) | huIL-17A/F Bioassay (IC50, nM) [6] | Kd (Rat IL-17A) | Kd [7]
IL17-mAb049 (antibody, V domains shown, Murine monoclonal antibody from a hybridoma; also called murine IL-17A mouse antibody mAb049) VH: HVQLQQSGADLVRPGASVTLSCKASGYIFTDYEVHWVKQTPVHGLEWIGVIDPGTGGVAYNQKFEGKATLTADDSSNTAYMELRSLTSEDSAVYYCTRYSLFYGSSPYAMDYWGQGTSVTVSS VL: QIVLTQSPAIMSASPGEKVTITCSASSSVNYMHWFQQKPGTSPKLWIYRTSNLASGVPVRFSGSGSGTSYSLTISRMEAEDAATYYCQQRSSYPWTFGGGTNLEIK | 0.07 nM | 0.0262 nM | 0.04 nM | 0.46 nM | 1 |  |  |  |  |  | 
Hu049-18 (antibody, V domains shown, Humanized mAb049) VH: EVQLVQSGAEVKKPGASVKVSCKASGYTFTDYEVHWVRQAPGQGLEWMGVIDPGTGGVAYNQKFEGRVTMTADTSTSTAYMELRSLRSDDTAVYYCTRYSLFYGSSPYAMDYWGQGTLVTVSS VL: EIVLTQSPDFQSVTPKEKVTITCSASSSVNYMHWFQQKPDQSPKLWIYRTSNLASGVPSRFSGSGSGTDYTLTINSLEAEDAATYYCQQRSSYPWTFGQGTKLEIKR |  |  |  |  |  | 0.0681 nM | 0.04 nM | 0.033 nM | 0.684 nM | 0.477 nM | < 0.001 nM
Hu049-20 (antibody, V domains shown) VH: EVQLVQSGAEVKKPGASVKVSCKASGYTFTDYEVHWVRQAPGQGLEWIGVIDPGTGGVAYNQKFEGRATLTADDSTNTAYMELRSLRSDDTAVYYCTRYSLFYGSSPYAMDYWGQGTLVTVSS VL: EIVLTQSPDFQSVTPKEKVTITCSASSSVNYMHWFQQKPDQSPKLWIYRTSNLASGVPSRFSGSGSGTDYTLTINSLEAEDAATYYCQQRSSYPWTFGQGTKLEIKR |  |  |  |  |  |  | 0.065 nM | 0.028 nM | 0.674 nM |  | 
Hu049-17 (antibody, V domains shown, Humanized mAb049) VH: EVQLVQSGAEVKKPGASVKVSCKASGYTFTDYEVHWVRQAPGQGLEWMGVIDPGTGGVAYNQKFEGRVTMTTDTSTSTAYMELRSLRSDDTAVYYCTRYSLFYGSSPYAMDYWGQGTLVTVSS VL: EIVLTQSPDFQSVTPKEKVTITCSASSSVNYMHWFQQKPDQSPKLWIYRTSNLASGVPSRFSGSGSGTDYTLTINSLEAEDAATYYCQQRSSYPWTFGQGTKLEIKR |  |  |  |  |  | 0.137 nM | 0.061 nM | 0.03 nM | 0.406 nM | 1.06 nM | < 0.001 nM
Hu049-19 (antibody, V domains shown, Humanized mAb049) VH: EVQLVQSGAEVKKPGASVKVSCKASGYTFTDYEVHWVRQAPGQGLEWIGVIDPGTGGVAYNQKFEGRVTMTADTSTSTAYMELRSLRSDDTAVYYCTRYSLFYGSSPYAMDYWGQGTLVTVSS VL: EIVLTQSPDFQSVTPKEKVTITCSASSSVNYMHWFQQKPDQSPKLWIYRTSNLASGVPSRFSGSGSGTDYTLTINSLEAEDAATYYCQQRSSYPWTFGQGTKLEIKR |  |  |  |  |  | 0.0771 nM | 0.066 nM | 0.039 nM | 0.411 nM | 0.06 nM | 0.00268 nM
